From the supplement of paper PMC7877785 come the findings set out here.

A short description of this data set: self-splicing fitness, log relative to wild type (ln ratio); higher = more splicing; Tetrahymena group I intron in knt gene, E. coli kanamycin selection, DiMSum; sequences stand for … in CUCUCU…GGAGGGAAAAGUUAUCAGGCAUGCACCUGGUAGCUAGUCUUUAAACCAAUAGAUUGCAUCGGUUUAAAAGGCAAGACCGUCAAAUUGCGGGAAAGGGGUCAACAGCCGUUCAGUACCAAGUCUCAGGGGAAACUUUGAGAUGGCCUUGCAAAGGGUAUGGUAAUAAGCUGACGGACAUGGUCCUAACCACGCAGCCAAGUCCUAAGUCAACAGAUCUUCUGUUGAUAUGGAUGCAGUUCACAGACUAAAUGUCGGUCGGGGAAGAUGUAUUCUUCUCAUAAGAUAUAGUCGGACCUCUCCUUAAUGGGAGCUAGCGGAUGAAGUGAUGCAACACUGGAGCCGCUGGGAACUAAUUUGUAUGCGAAAGUAUAUUGAUUAGUUUUGGAGUACUCGUGGUCG
A digest of the protocol: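 Pooled colonies went to amplicon sequencing on an Illumina HiSeq 2500 after six replicate transformations. The plates were LB agar with 100 μg/mL carbenicillin, 50 μM IPTG and 0.2% rhamnose, with or without 25 μg/mL kanamycin, incubated overnight at 37°C or 30°C. The E. coli BL21(DE3) library had all eight P1ex-region intron nucleotides randomised, the intron placed in the knt kanamycin-resistance gene on pET-22b(+). DiMSum fitness is the error-weighted combination of replicate fold changes, kanamycin against none, normalised to wild type.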

± gives the uncertainty stated by the source.

Regarding CCGCAGCAAUAUUACGUGUC, the “self-splicing fitness (ln)” value runs as follows: (30 °C) -3.88 ± 0.2; (37 °C) -2.34 ± 0.14. With CCGGAGCAAUAUUACGAACA, the “self-splicing fitness (ln)” value is, setting by setting: (30 °C) -2.82 ± 0.41; (37 °C) -2.9 ± 0.32. With CCGGAGCAAUAUUACGACAG, the “self-splicing fitness (ln)” value reads like this: (30 °C) -0.593 ± 0.13; (37 °C) -0.569 ± 0.14.

In the case of CCGGAGCAAUAUUACGACAU, the “self-splicing fitness (ln)” value (30 °C) was -3.816 ± 0.032 and the “self-splicing fitness (ln)” value (37 °C) was -3.02 ± 0.045. In the same order, the values of CCGGAGCAAUAUUACGACGA are -0.828 ± 0.23 and -1.07 ± 0.24. CCGGAGCAAUAUUACGAGAG: the “self-splicing fitness (ln)” value was -2.13 ± 0.22 (30 °C) and -2.33 ± 0.22 (37 °C). In the same order, the values of CCGGAGCAAUAUUACGAUGA are -2.7 ± 0.23 and -1.37 ± 0.23. As to CCGGAGCAAUAUUACGCAGU, the “self-splicing fitness (ln)” value reads like this: (30 °C) -3.74 ± 0.28; (37 °C) -2.13 ± 0.25. Take CCGGAGCAAUAUUACGCGAU: the “self-splicing fitness (ln)” value runs as follows: (30 °C) -3.82 ± 0.27; (37 °C) -2.62 ± 0.33. Consider CCGGAGCAAUAUUACGCGGU, for which the “self-splicing fitness (ln)” value (30 °C) was -3.21 ± 0.16 and the “self-splicing fitness (ln)” value (37 °C) is -2.96 ± 0.23.

Regarding CCGGAGCAAUAUUACGCUCG, the “self-splicing fitness (ln)” value (30 °C) was -3.16 ± 0.28. As for CCGGAGCAAUAUUACGGACC, the “self-splicing fitness (ln)” value by setting is: (30 °C) -2.12 ± 0.4; (37 °C) -1.64 ± 0.45. On to CCGGAGCAAUAUUACGGAUC, for which, where the note is “30 °C”, the “self-splicing fitness (ln)” value was -2.42 ± 0.31.

For the sequence CCGGAGCAAUAUUACGGCGC, the “self-splicing fitness (ln)” value (37 °C) was -0.565 ± 0.49. As for CCGGAGCAAUAUUACGGGUC, the “self-splicing fitness (ln)” value by setting is: (30 °C) -3.5 ± 0.27; (37 °C) -2.77 ± 0.35. In the same order, the values of CCGGAGCAAUAUUACGGUCG are -1.22 ± 0.097 and -0.072 ± 0.13. Consider CCGGAGCAAUAUUACGUCUC, for which the “self-splicing fitness (ln)” value is, setting by setting: (30 °C) -3.22 ± 0.31; (37 °C) -2.69 ± 0.39.

As to CCGGAGCAAUAUUACGUUGA, under “37 °C”, the “self-splicing fitness (ln)” value was -2.61 ± 0.36. For the sequence CCGGAGCAAUAUUACGUUGC, where the note is “30 °C”, the “self-splicing fitness (ln)” value was -2.35 ± 0.32. In the case of CCGUAGCAAUAUUACGACAU, the “self-splicing fitness (ln)” value was -3.773 ± 0.027 (30 °C) and -2.94 ± 0.042 (37 °C). In the same order, the values of CCGUAGCAAUAUUACGACUG are -0.0597 ± 0.12 and -0.95 ± 0.15. Consider CCGUAGCAAUAUUACGAGUA, for which the “self-splicing fitness (ln)” value (37 °C) is -2.04 ± 0.22. Turning to CCGUAGCAAUAUUACGAGUG, the “self-splicing fitness (ln)” value (30 °C) is -1.07 ± 0.069 and the “self-splicing fitness (ln)” value (37 °C) was -0.807 ± 0.083. As for CCGUAGCAAUAUUACGAUAA, the “self-splicing fitness (ln)” value was -4.17 ± 0.39 (30 °C) and -1.99 ± 0.28 (37 °C). Take CCGUAGCAAUAUUACGCAAA: the “self-splicing fitness (ln)” value (37 °C) was -2.24 ± 0.25. Regarding CCGUAGCAAUAUUACGCCUG, the “self-splicing fitness (ln)” value (30 °C) was -0.012 ± 0.085 and the “self-splicing fitness (ln)” value (37 °C) is -0.0205 ± 0.084. As for CCGUAGCAAUAUUACGCGGU, the “self-splicing fitness (ln)” value by setting is: (30 °C) -3.13 ± 0.27; (37 °C) -2.38 ± 0.3. Consider CCGUAGCAAUAUUACGCUCG, for which the “self-splicing fitness (ln)” value (30 °C) is -1.1 ± 0.2 and the “self-splicing fitness (ln)” value (37 °C) is -0.457 ± 0.23. In the same order, the values of CCGUAGCAAUAUUACGGCAA are -3.49 ± 0.43 and -2.42 ± 0.42. As to CCGUAGCAAUAUUACGGCAC, the “self-splicing fitness (ln)” value reads like this: (30 °C) -3.83 ± 0.42; (37 °C) -2.14 ± 0.26.

Regarding CCGUAGCAAUAUUACGGGAA, the “self-splicing fitness (ln)” value (37 °C) is -2.04 ± 0.31. Regarding CCGUAGCAAUAUUACGGGAU, the “self-splicing fitness (ln)” value is -4.51 ± 0.29 (30 °C) and -2.53 ± 0.2 (37 °C).

As to CCGUAGCAAUAUUACGGGUA, the “self-splicing fitness (ln)” value reads like this: (30 °C) -2.75 ± 0.32; (37 °C) -2.67 ± 0.36. Turning to CCGUAGCAAUAUUACGUGAU, the “self-splicing fitness (ln)” value (30 °C) is -3.04 ± 0.14 and the “self-splicing fitness (ln)” value (37 °C) is -2.43 ± 0.18.

In the case of CCUAAGCAAUAUUACGAAGC, the “self-splicing fitness (ln)” value reads like this: (30 °C) -2.92 ± 0.18; (37 °C) -1.92 ± 0.28. With CCUAAGCAAUAUUACGACAA, the “self-splicing fitness (ln)” value (30 °C) was -3.28 ± 0.22 and the “self-splicing fitness (ln)” value (37 °C) is -2.54 ± 0.2. For the sequence CCUAAGCAAUAUUACGAGAG, the “self-splicing fitness (ln)” value is -2.31 ± 0.17 (30 °C) and -1.23 ± 0.13 (37 °C). As for CCUAAGCAAUAUUACGAGCA, the “self-splicing fitness (ln)” value is, setting by setting: (30 °C) -2.92 ± 0.3; (37 °C) -3.08 ± 0.35. With CCUAAGCAAUAUUACGAGGG, the “self-splicing fitness (ln)” value was -3.2 ± 0.17 (30 °C) and -3 ± 0.35 (37 °C). CCUAAGCAAUAUUACGAGUC: the “self-splicing fitness (ln)” value (30 °C) is -3.77 ± 0.22. For CCUAAGCAAUAUUACGCGAU, the “self-splicing fitness (ln)” value is, setting by setting: (30 °C) -3.49 ± 0.24; (37 °C) -2.31 ± 0.27.
